Source: patent US20230257454A1 (STAIDSON BEIJING BIOPHARMACEUTICALS, published 2023)

What was measured:
Assay in all cases: ELISA on the coated C5a protein, antibody titrated, OD410
C5a-L2A = biological target: T1, C5a-L2A
T1 single chain: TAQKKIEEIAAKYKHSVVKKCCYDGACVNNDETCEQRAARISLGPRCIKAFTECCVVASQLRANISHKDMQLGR

C5a-Q3A = biological target: T2, C5a-Q3A
T2 single chain: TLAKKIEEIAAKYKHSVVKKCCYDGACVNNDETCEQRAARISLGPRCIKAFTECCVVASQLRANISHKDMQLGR

C5a-K4A = biological target: T3, C5a-K4A
T3 single chain: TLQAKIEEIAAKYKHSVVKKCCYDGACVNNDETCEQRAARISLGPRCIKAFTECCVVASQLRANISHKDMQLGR

C5a-K5A = biological target: T4, C5a-K5A
T4 single chain: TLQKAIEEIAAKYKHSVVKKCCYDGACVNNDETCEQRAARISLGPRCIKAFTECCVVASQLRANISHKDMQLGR

C5a-A63R = biological target: T5, C5a-A63R
T5 single chain: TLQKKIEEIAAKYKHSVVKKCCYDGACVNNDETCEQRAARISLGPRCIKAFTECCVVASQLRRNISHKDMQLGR

C5a-S66A = biological target: T6, C5a-S66A
T6 single chain: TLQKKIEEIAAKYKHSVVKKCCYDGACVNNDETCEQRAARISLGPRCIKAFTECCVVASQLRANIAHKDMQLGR

C5a-S66R = biological target: T7, C5a-S66R
T7 single chain: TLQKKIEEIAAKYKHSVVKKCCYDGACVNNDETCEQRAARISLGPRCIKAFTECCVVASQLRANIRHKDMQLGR

C5a-H67A = biological target: T8, C5a-H67A
T8 single chain: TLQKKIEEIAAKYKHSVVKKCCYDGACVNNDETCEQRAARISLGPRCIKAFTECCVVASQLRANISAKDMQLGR

C5a-K68A = biological target: T9, C5a-K68A
T9 single chain: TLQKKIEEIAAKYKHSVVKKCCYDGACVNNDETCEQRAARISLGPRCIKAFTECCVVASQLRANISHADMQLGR

C5a-D69A = biological target: T10, C5a-D69A
T10 single chain: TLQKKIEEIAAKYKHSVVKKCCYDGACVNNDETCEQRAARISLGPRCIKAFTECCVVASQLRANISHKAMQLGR

C5a-M70A = biological target: T11, C5a-M70A
T11 single chain: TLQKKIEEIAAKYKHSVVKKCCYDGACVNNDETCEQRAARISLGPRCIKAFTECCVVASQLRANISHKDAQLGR

C5a-Q71A = biological target: T12, C5a-Q71A
T12 single chain: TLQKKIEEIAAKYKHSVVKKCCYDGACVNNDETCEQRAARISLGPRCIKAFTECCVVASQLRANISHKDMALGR

C5a-L72A = biological target: T13, C5a-L72A
T13 single chain: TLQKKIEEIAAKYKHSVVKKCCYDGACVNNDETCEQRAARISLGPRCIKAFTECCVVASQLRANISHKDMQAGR

Measured: binding result

B1: Cab42-IgG1 (antibody, V domains shown)
VH: EMQLVESGGGLVQPGGSLRLSCAASGFTFSDYYMQWVRQAPGKGPEWVGLIRNKAVGETTQYAASVKGRFTISRDDSKNSVYLQMNSLKTEDTAVYYCVSRAGPPGLSWGQGVLVTVSS
VL: DIVMTQSPLSLPVTPGEPASISCRSSQSLLASDAYNYIDWYLQKPGQSPQLLIYGGSNRASGVPDRFSGSGSGTDFTLKISRVEAEDVGVYFCLQHRALPPTFGQGTKLEIK
notes: Full-length human IgG1; It was biotinylated in the peptide-Fc ELISA
binds: all assays above
